These results are taken from US5928915A, “CHO cell sialidase by recombinant DNA technology” (Genentech, Inc., priority 1997, dated 1999).

The data set deals with T1, CHO cell sialidase (Cricetulus griseus, UniProt Q64393).
T1 construct: The sialidase described was purified from the cell culture fluid of a single production cell line (CHO 14.16); endogenous in cells; host or cells: CHO 14.16 cells (purified from the cell culture fluid)
The experiment in a line: Sialidase kinetic constants with soluble sialylglycoconjugate substrates. The class given is biochemical, Chinese hamster. The procedure:
Fluorescent sialidase assays: Standard assay conditions for monitoring the enzyme activity during purification using the fluorescent substrate analog are: 1.3 mM 4-MUNeu5Ac, 50 mM phosphate buffer, pH 6.8, 0.3 mg bovine serum albumin and varying amounts of enzyme in a total volume of 30 μl. After addition of enzyme the samples are incubated at 37° C. in a shaking water bath for 5 minutes. The reaction is terminated and the fluorescence of the liberated umbelliferone is enhanced by the addition of 2 ml of 80 mM glycine-carbonate buffer, pH 9.7. Quantification of the product is made by measuring the fluorescence of the samples with excitation at 365 nm and emission at 450 nm using a standard of 4-methyl umbelliferone. A unit of enzyme activity is defined as a μmol/min of sialic acid liberated.
Sialidase assays with natural substrates: When natural substrates are tested with the purified enzyme, the amount of released sialic acid is measured using the thiobarbituric acid assay as modified by Uchida [Uchida et al. J. Biochem., 82:1425 (1977)] using sialic acid as standard. […] All samples are cleared by centrifugation (1,000×G, 10 min) prior to determining the absorbance at 540 nm.
Enzyme kinetic parameters: Assay conditions (time and added enzyme) are modified for each substrate so that initial reaction rates are measured. […]

T1 sequence (Q64393 whole entry): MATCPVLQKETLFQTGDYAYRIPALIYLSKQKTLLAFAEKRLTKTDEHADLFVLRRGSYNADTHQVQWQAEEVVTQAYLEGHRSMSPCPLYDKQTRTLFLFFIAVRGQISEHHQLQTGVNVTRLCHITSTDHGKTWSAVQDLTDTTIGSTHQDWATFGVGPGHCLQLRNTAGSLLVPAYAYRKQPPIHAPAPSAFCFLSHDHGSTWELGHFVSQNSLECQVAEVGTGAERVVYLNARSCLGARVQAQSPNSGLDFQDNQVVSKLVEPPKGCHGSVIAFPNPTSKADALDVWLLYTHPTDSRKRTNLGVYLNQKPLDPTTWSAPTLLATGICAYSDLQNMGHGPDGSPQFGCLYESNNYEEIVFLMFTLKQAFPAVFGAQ

B1: rDeoxyribonuclease 1: encoded by a human-derived nucleotide sequence, was expressed in Chinese hamster ovary cells (protein, UniProt P24855 23-282, looked up)
Deoxyribonuclease-1: LKIAAFNIQTFGETKMSNATLVSYIVQILSRYDIALVQEVRDSHLTAVGKLLDNLNQDAPDTYHYVVSEPLGRNSYKERYLFVYRPDQVSAVDSYYYDDGCEPCGNDTFNREPAIVRFFSRFTEVREFAIVPLHAAPGDAVAEIDALYDVYLDVQEKWGLEDVMLMGDFNAGCSYVRPSQWSSIRLWTSPTFQWLIPDSADTTATPTHCAYDRIVVAGMLLRGAVVPDSALPFNFQAAYGLSDQLAQAISDHYPVEVMLK
For B1, the maximal velocity (Vmax) – broadly, the rate approached at saturating substrate – (apparent, standard assay conditions, average of duplicates, relative error about 10%) was 12 µmol/min/mg. The “Km values compared (in words)” value (transferrin versus deoxyribonuclease I) was “nearly identical”.
